Measured values reported in publication PMC9974672, “Luteolin protects DYT-PRKRA cells from apoptosis by suppressing PKR activation” (Frontiers in Pharmacology, 2023).

Target: T1, PKR fused to the GAL4 DNA-binding domain (mammalian two-hybrid bait) (UniProt P19525 1-551)
T1 construct: also called GAL4-DBD PKR; source: mammalian two-hybrid fusion, transfected cells (COS-1 by the methods, HeLa by the legends)
Test: two-hybrid; mammalian two-hybrid, PKR as GAL4-DBD fusion (bait), PACT proteins as VP16-AD fusions (preys), pG5Luc firefly luciferase reporter normalised to pRL-Null; cells untreated, no stress
Conditions: partners not purified

T1 sequence (P19525 whole entry, the tested form may be a part): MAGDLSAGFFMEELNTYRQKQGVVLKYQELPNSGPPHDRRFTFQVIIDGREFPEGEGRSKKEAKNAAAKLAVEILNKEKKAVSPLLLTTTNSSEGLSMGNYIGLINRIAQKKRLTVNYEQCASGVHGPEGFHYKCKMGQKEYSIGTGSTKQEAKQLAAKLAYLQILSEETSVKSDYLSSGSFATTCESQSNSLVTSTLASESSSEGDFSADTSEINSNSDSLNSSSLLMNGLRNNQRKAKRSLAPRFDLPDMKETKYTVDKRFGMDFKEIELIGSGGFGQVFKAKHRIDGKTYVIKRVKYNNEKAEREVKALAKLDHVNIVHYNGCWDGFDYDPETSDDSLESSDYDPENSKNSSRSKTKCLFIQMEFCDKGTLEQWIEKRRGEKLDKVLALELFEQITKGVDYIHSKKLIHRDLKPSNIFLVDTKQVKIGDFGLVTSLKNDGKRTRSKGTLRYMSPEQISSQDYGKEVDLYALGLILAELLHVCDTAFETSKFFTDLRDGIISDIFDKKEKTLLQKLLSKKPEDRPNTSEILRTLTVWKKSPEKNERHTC

fold interaction against wt PACT-PKR (two-hybrid luciferase) [fold]	Binder
> 2	DD (S246D, S287D) phosphomimic mutant PACT fused to the VP16 activation domain (mammalian two-hybrid prey) (natural protein, UniProt O75569 1-313, looked up, PACT ORF with serines 246 and 287 replaced by aspartic acids, in pVP16AASV19N; also called DD PACT; DD mutant; source: mammalian two-hybrid fusion, transfected cells (COS-1 by the methods, HeLa by the legends)) MSQSRHRAEAPPLEREDSGTFSLGKMITAKPGKTPIQVLHEYGMKTKNIPVYECERSDVQIHVPTFTFRVTVGDITCTGEGTSKKLAKHRAAEAAINILKANASICFAVPDPLMPDPSKQPKNQLNPIGSLQELAIHHGWRLPEYTLSQEGGPAHKREYTTICRLESFMETGKGASKKQAKRNAAEKFLAKFSNISPENHISLTNVVGHSLGCTWHSLRNSPGEKINLLKRSLLSIPNTDYIQLLDEIAKEQGFNITYLDIDELSANGQYQCLAELSTSPITVCHGDGISCGNAQSDAAHNALQYLKIIAERK
~3	P222L PACT fused to the VP16 activation domain (mammalian two-hybrid prey) (natural protein, UniProt O75569 1-313, looked up, PACT ORF with the DYT-PRKRA patient mutation P222L, in pVP16AASV19N; Plasmid described in Vaughn et al., 2015; Burnett et al., 2020; also called P222L mutant; source: mammalian two-hybrid fusion, transfected cells (COS-1 by the methods, HeLa by the legends)) MSQSRHRAEAPPLEREDSGTFSLGKMITAKPGKTPIQVLHEYGMKTKNIPVYECERSDVQIHVPTFTFRVTVGDITCTGEGTSKKLAKHRAAEAAINILKANASICFAVPDPLMPDPSKQPKNQLNPIGSLQELAIHHGWRLPEYTLSQEGGPAHKREYTTICRLESFMETGKGASKKQAKRNAAEKFLAKFSNISPENHISLTNVVGHSLGCTWHSLRNSLGEKINLLKRSLLSIPNTDYIQLLSEIAKEQGFNITYLDIDELSANGQYQCLAELSTSPITVCHGSGISCGNAQSDAAHNALQYLKIIAERK
